In paper PMC3954831, “Protection of Cardiomyocytes from the Hypoxia-Mediated Injury by a Peptide Targeting the Activator of G-Protein Signaling 8” (PLoS ONE, 2014):

Target: T1, Recombinant human Gβ1γ2 (human, UniProt P62873 1-340; P59768 1-71)
T1 construct: G-protein beta 1 subunit, human, recombinant; G-protein gamma 2 subunit, human, recombinant; Preformed heterodimer bought as such; detected by an anti-Gβ antibody; also called Gβγ; purified Gβγ; source: bought: Calbiochem-Merck Millipore (recombinant)
Experiment: pull-down; competition: GST-AGS8-C (100 nM) incubated with recombinant human Gβ1γ2 (10 nM) in the presence of rising doses of peptide CP1 or CP9, adsorbed to a glutathione matrix; immunoblot with densitometry, n = 6
Details: both partners purified

B1: AGS8-peptide CP9 (peptide)
peptide: SFVIVDWNKAIPGDVVTGYLVYSASYEDFI
notes: About 97% HPLC purity; source: synthetic peptide (Invitrogen)
- IC50: 2.77 µM

B2: AGS8-peptide CP1 (peptide)
peptide: APRNITVVAMEGCHSFVIVDWNKAIPGDV
notes: as for B1
- IC50: 6.73 µM
